Biological target: the molecule itself
Experiment: non-reducing SDS-PAGE; purified recombinant protein eluted from the nickel resin, Coomassie stained gel with and without 2-mercaptoethanol; dimer size band under non-reducing conditions

B1: recombinant SURFIN4.2 extracellular domain (position 1-746), N-terminal 6x histidine-tagged (domain or fragment)
chain: MLFVVELDSRLEKSADKRISVERFRKIFEIYVEDKLEELKRSGSEKYDKDCRDFNYFIDDVKDVFINNDLVKIPVKVRKSIWETHVDKNLPKLMKNTTSCKCIRKEHNYNKEYRDMTRTLEDFCEEKTRKLEIIYQKDYDESLYVNFNEWINKKKEDILKEYEKLSNKDKYKHLLKISETCDLNHVDKLFLNISSEDMKKMKEDVKKQHLEVKVRPPVNEPIDDRGKEDALSRGGKSIILNKEENSPTEEITTEYNPVSEMGVGTTIAHSEPGPKTVNTEVRNVLRSDGKISDQGSQKSPPKELSNKQMTPAQRKNVPHFVERRGYGNSHVRGNALKKISNGDDNYKSPSSNYIEVDCAEDKYFLLEDGTNQSENSCKTKYNYFVSNDYDGTGSAIYSTDQVPSREEIKSPDSLSTLDARGSTHNLNVSNEGNPLEGGEEKNNVKISEQNGRNLESSVGTDKGSDKNEEEVAATCDPNDRNCFDGRYINVDYIRGLLKGKRSGSDGRSNIKHIISNNFDDSNMIFPTFNFDFDILKAEEEVLPVNNSDIIYGHEEVEETTQEGASIFEKHSHTSSQQNDSSASGNKYRMLSTTMELPNQQEVFGLYSPVSRTLDSAMSFLRSIISLSSAPVSRSEGQSKESKRVEISTTVQDPIGYRTSPLQMNAHSVGAGINVSSILSMLGLSSGQVRRSGGQGSETYIVGTSQSGFHKNEVIPSIKDKSGKTQIVSNEKGGIFSKGITSMMSSL
In the case of B1, the “stoichiometry N” value is reported as 2.

From article PMC6084945, “SURGE complex of Plasmodium falciparum in the rhoptry-neck (SURFIN4.2-RON4-GLURP) contributes to merozoite invasion” (PLoS ONE, 2018)
